Laboratory results taken from patent US20130129722A1.
Numbering of substitutions follows the chain as printed.

B1: H1H742N (antibody, V domains shown)
VH: DVQLLESGGDLVQPGGSLRLSCEASGFTFRNYVMIWVRQAPGKGLEWVSGISNSGGTTHYTDSVKGRFTISRDNSKNTLYLQINSLRAEDTAVYYCAKGYLDTSLIEGNWFDPWGQGTLVTVSS
VL: NIVMTQSPLSLPVTPGEPASISCRSSQSLLHSNGFNYLNWFLQKPGQSPQLLIYLGSNRASGVPDKFSGSGSGTDFTLNINRVEAEDVGIYFCMQTLQTPLTFGGGTKVEIK
B2: H2M742N (antibody, V domains shown)
VH: B1 VH
VL: B1 VL
B3: H1H750N (antibody, V domains shown)
VH: QVKLVESGGGVVQPGRSLRVSCAASGFTFSSYGMHWVRQAPGKGLEWLAIIWYDGDNKYYSDSVKGRFTISRDNSKNTLYLQMNSLRAEDTAEYYCVRDASIASRFLDYWGQGTLVTVSS
VL: DIQMTQSPSSLSASIGDRVTITCRATQDINNYLAWFQQKPGKAPKSLIYATSNLQSGVPSKFSGSGSGTDYTLTISSLQPEDFSTYYCQQYHSYPLTFGGGTKVEIK
B4: H2M750N (antibody, V domains shown)
VH: B3 VH
VL: B3 VL
B5: H1H743N (antibody, V domains shown)
VH: EVQLLESGGGLVQPGGSLRLSCAASGFTFRKYAMSWVRQAPGKGLEWVSVISVSGGNTYYADSVKGRFTISRDNSKNTLYLQLNSLRAEDTAVYYCAKDLTDIVLMVYVDYWGQGTLVTVSS
VL: DIQMTQSPSSVSASVGDRVTITCRASQDIDRWLAWYQQKPGKAPKLLIYAASSLQSGVPSRFSGSGSGTDFTLTISTLQPEDFATYYCQQANSLPFTFGGGTKVEIK
B6: H1H693P (antibody, human IgG1, V domains shown)
VH: EVQLVESGGGLVQPGESLRLSCAASGFTFSSYAMSWVRQGPGKGLEWVSSISGSGGTTYYADSVEGRFTISRDNSKNTLYLHMNSLRAEDTAVYYCAKDFLDYSTYLAFDLWGQGTMVTVSS
VL: B5 VL with D28G, D30S, R31S, T77S, L94F, F96R, G100Q
B7: H2M743N (antibody, V domains shown)
VH: B5 VH
VL: B5 VL
B8: H1M728N (antibody, V domains shown)
VH: EVQLVESGGDLVQPGGSLRLSCTASGFTFSKYWMTWVRQAPGRGLEWVANIKEDGNEKYFLDSVKGRFTISRDNAKDLLFLQMNSLRGEDTAVYYCVRDRGIEVAGPFDYWGQGTLVTVSS
VL: DIQMTQSPSTLSASVGDRVTVTCRASQTIINWLAWYQQKPGKAPKLLISKASSLESGVPSRFSGSGSGTEFTLTISSLQPDDFATYYCQQYNRYWTFGQGTMVEIK
B9: H1H728N (antibody, V domains shown)
VH: B8 VH
VL: B8 VL
B10: H2M730N (antibody, V domains shown)
VH: EVQLVESGGGLVQPGGSLRLSCAASGFAFRSYWMTWVRQAPGKGLEWVANIQQDGNDKYYVDSVKGRFTISRDNAKNSLYLQMNSLRAEDTAVYYCARDTGIAEAGPFDYWGQGTLVTVSS
VL: B8 VL with T20S, V21I, N31S, K45R, S49Y, S76N, M102K
B11: H1H730N (antibody, V domains shown)
VH: B10 VH
VL: B8 VL with T20S, V21I, N31S, K45R, S49Y, S76N, M102K
B12: H1M724N (antibody, V domains shown)
VH: QVQLVESGGGVVQPGRSLRLSCAASGFTLSNYGMHWVRQAPGKGLEWVAVIWHDGSNTYYADSVKGRFTISRDNSKNTLYLQMNSLRAEDTAVYYCTREGLDFWSGYYPNWFDPWGQGTLVTVSS
VL: DIQMTQSPSSLSASVGDRVTITCRASQGIRNDLGWYQQKPGKAPKRLIYAASNLQGGVPSRFSGSGSGTEFTLTISSLQPEDFAAYYCLQHNIYPLTFGGGTKVEIK
B13: H1H732N (antibody, V domains shown)
VH: EVQLVESGGGLVRPGGSLRLSCAASGFTFTNAWMSWVRQAPGKGLEWIGQIKSKTDGGTIDYAAPVKGRFTVSRDDSENTLFLQMNSLKTEDTAVYYCAGNWNYVDFDYWGQGTLVTVSS
VL: B12 VL with G28D, N53S, A85T, I93S, L96F, G100P, E105D
B14: H1M732N (antibody, V domains shown)
VH: B13 VH
VL: B12 VL with G28D, N53S, A85T, I93S, L96F, G100P, E105D

Experiments:
[1] = biological target: Human Ang-2FD-hFc (human); assay: ELISA; 16.67 nM antibody premixed with Ang-2FD-hFc, binding to coated hTie-2-mFc
[2] = biological target: Monkey Ang-2FD-hFc (monkey (Macca fascicularis)); assay: as above
[3] = biological target: Mouse Ang-2FD-hFc (mouse (Mus musculus)); assay: as above
[4] = biological target: Dimeric Human Ang-2FD conjugated to human IgG1 (human); assay: SPR, human IgG1 antibody captured
Dimeric Human Ang-2FD conjugated to human IgG1 (human), sequence (chain, as listed by the source limits assumed): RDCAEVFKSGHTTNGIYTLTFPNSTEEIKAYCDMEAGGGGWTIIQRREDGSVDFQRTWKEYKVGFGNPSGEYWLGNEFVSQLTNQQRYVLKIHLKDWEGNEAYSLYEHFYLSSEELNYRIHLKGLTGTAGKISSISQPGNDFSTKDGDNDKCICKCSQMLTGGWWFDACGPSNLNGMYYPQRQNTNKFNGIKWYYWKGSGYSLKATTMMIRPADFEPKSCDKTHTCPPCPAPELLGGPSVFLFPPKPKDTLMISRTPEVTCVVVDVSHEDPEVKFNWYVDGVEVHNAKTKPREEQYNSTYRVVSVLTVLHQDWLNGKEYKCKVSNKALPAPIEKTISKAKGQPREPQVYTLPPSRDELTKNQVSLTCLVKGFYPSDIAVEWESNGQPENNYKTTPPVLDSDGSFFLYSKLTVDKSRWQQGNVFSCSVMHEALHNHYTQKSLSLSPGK

[5] = biological target: Dimeric Monkey Ang-2FD conjugated to human IgG1 (monkey (Macca fascicularis)); assay: SPR, human IgG1 antibody captured
Dimeric Monkey Ang-2FD conjugated to human IgG1 (monkey (Macca fascicularis)), sequence (chain, as listed by the source limits assumed): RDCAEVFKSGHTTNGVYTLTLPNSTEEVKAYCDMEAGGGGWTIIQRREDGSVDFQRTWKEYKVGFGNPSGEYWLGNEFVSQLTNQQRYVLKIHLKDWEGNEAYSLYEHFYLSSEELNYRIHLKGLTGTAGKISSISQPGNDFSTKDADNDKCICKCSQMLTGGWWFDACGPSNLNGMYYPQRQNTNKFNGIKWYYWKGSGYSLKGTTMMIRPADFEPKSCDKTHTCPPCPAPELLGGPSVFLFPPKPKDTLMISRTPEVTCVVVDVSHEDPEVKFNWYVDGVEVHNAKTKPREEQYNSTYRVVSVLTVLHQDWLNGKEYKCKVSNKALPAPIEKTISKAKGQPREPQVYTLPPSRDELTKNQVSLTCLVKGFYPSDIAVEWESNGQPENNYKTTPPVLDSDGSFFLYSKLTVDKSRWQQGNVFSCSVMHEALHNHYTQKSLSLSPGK

[6] = biological target: Dimeric Mouse Ang-2FD conjugated to human IgG1 (mouse (Mus musculus)); assay: SPR, human IgG1 antibody captured
Dimeric Mouse Ang-2FD conjugated to human IgG1 (mouse (Mus musculus)), sequence (chain, as listed by the source limits assumed): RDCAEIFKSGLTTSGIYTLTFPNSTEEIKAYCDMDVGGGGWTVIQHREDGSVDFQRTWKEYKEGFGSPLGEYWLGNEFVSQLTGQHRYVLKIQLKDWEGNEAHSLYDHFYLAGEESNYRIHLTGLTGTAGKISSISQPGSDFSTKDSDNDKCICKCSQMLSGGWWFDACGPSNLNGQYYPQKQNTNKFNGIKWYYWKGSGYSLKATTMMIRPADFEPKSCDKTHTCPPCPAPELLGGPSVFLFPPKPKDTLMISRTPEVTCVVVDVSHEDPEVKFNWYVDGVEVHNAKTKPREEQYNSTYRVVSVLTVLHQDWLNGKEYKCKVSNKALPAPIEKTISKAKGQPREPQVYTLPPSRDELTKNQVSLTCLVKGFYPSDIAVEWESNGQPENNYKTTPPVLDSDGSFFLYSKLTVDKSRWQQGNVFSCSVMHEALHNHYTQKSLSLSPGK

[7] = biological target: Dimeric Human Ang-2FD conjugated to human IgG1 (human); assay: SPR, antibody captured, room temperature
[8] = biological target: Dimeric Monkey Ang-2FD conjugated to human IgG1 (monkey (Macca fascicularis)); assay: SPR, antibody captured, room temperature
[9] = biological target: Dimeric Mouse Ang-2FD conjugated to human IgG1 (mouse (Mus musculus)); assay: SPR, antibody captured, room temperature
[10] = biological target: Dimeric Human Ang-2FD conjugated to human IgG1 (human); assay: ELISA, 16.67 nM antibody, Ang-2FD-hFc binding to coated hTie-2-mFc
[11] = biological target: Dimeric Monkey Ang-2FD conjugated to human IgG1 (monkey (Macca fascicularis)); assay: as above
[12] = biological target: Dimeric Mouse Ang-2FD conjugated to human IgG1 (mouse (Mus musculus)); assay: as above

Row | Molecule | Percent Blocking of Ang-2FD Binding to Tie-2 [1] | Percent Blocking of Ang-2FD Binding to Tie-2 [2] | Percent Blocking of Ang-2FD Binding to Tie-2 [3] | Kd [4] | T1/2 [4] | Kd [5] | T1/2 [5] | Kd [6] | T1/2 [6] | Kd [7] | T1/2 [7] | Kd [8] | T1/2 [8] | Kd [9] | T1/2 [9] | Percent Blocking of Ang-2FD Binding to Tie-2 [10] | Percent Blocking of Ang-2FD Binding to Tie-2 [11] | Percent Blocking of Ang-2FD Binding to Tie-2 [12]
1 | Control I (Ab) (antibody) | 97.3% | 98.5% | 82.2% | – | – | – | – | – | – | – | – | – | – | – | – | – | – | –
2 | B1 | – | – | – | 0.186 nM | 65 min | 0.683 nM | 93 min | 0.276 nM | 58 min | – | – | – | – | – | – | – | – | –
3 | B2 | – | – | – | – | – | – | – | – | – | 0.295 nM | 38 min | 6.17 nM | 28.5 min | 0.61 nM | 30.8 min | 99.6% | 94.1% | 98.6%
4 | B3 | – | – | – | 0.164 nM | 127 min | 0.199 nM | 244 min | 0.218 nM | 121 min | – | – | – | – | – | – | – | – | –
5 | B4 | – | – | – | – | – | – | – | – | – | 0.362 nM | 32.2 min | 1.47 nM | 23 min | – | – | 99.4% | 97.4% | 53.7%
6 | B5 | – | – | – | 0.0882 nM | 254 min | 0.0965 nM | 780 min | 0.124 nM | 233 min | – | – | – | – | – | – | – | – | –
7 | B6 | 73.9% | – | 63.6% | 0.5 nM | 37.1 min | 1.17 nM | 17.6 min | 0.446 nM | 63.7 min | – | – | – | – | – | – | – | – | –
8 | B7 | – | – | – | – | – | – | – | – | – | 0.154 nM | 167 min | 0.234 nM | 169 min | 0.882 nM | 195 min | 99.6% | 95.1% | 98.4%
9 | B8 | – | – | – | – | – | – | – | – | – | 0.137 nM | 58.4 min | 1.58 nM | 69.5 min | 5.65 nM | 9.9 min | 98.5% | 97.1% | 83.9%
10 | B9 | – | – | – | 0.162 nM | 81 min | 2 nM | 77 min | 5.76 nM | 20 min | – | – | – | – | – | – | – | – | –
11 | B10 | – | – | – | – | – | – | – | – | – | 0.21 nM | 47 min | 0.842 nM | 36.6 min | – | – | 98.9% | 97.3% | 55%
12 | B11 | – | – | – | 0.234 nM | 62 min | 3.4 nM | 87 min | 0.0971 nM | 90 min | – | – | – | – | – | – | – | – | –
13 | B12 | – | – | – | – | – | – | – | – | – | 0.179 nM | 42.7 min | 0.73 nM | 25.7 min | 0.694 nM | 16 min | 99.5% | 95.2% | 96.6%
14 | B13 | – | – | – | 0.386 nM | 57 min | 0.439 nM | 118 min | 0.529 nM | 51 min | – | – | – | – | – | – | – | – | –
15 | B14 | – | – | – | – | – | – | – | – | – | 0.484 nM | 35.5 min | 7.33 nM | 24.1 min | 1.7 nM | 21.4 min | 97.7% | 95.8% | 90.9%
